Earlier results on one substance are cited in paper PMC8910494.

As a reminder, the Kd is the free concentration of one partner at which half of the binding sites on the other are occupied at equilibrium, for simple one-to-one binding.

This data set has as its target FICD (Homo sapiens) (UniProt Q9BVA6).

With FICD (from UniProt Q9BVA6), the Kd is 1.2 nM.
